Measurements published in a protein production outcome set (Wang et al. 2014).

Assay: label from the status in PepcDB records

Sequence: MKDILWLMQKTLSVLLKNKKGLLIIISLPIIGTLISFSIYGNAGQGALNIGVINKENESIANDTVKFLEEINHVKVSKVKESEVEDKLTSKKLDGVITLQSGFSESVREGKPSNIEISSIKGDQVTAFIKSYLYNYIDNVAAISKVAGTDQSAFDTMYAGYQKSSFKVKTETLEDTSKNKDMTNQTMGYLIMFMLFSAVNLSGYILKEKENRTYFRLLSTPIDGKKFILSNVGVNMIILTVQIMITILFLTNVFHTNINMPFIVMVGVLMIFALIAIGMSLVIVAFSKNSSSANAMQNMVIVPTCLLAGCYFPYDIMPSAVQKVANFLPQRWLLDTVSKLQQGIPFSELYLNILILFAFAIAFFLIAIYKFGRNNDARNFV
- protein production: failed

Sequence: MTKKKAHKPGSATIALNKRARHEYFIEEEFEAGLALQGWEVKSLRAGKANISDSYVLLRDGEAFLFGANITPMAVASTHVVCDPTRTRKLLLNQRELDSLYGRVNREGYTVVALSLYWKNAWCKVKIGVAKGKKQHDKRSDIKEREWQVDKARIMKNAHR
- protein production: not failed

Sequence: MKEELKREYERIKDRISPEEFEELIEKKKEELGDIGFMDDLTIASTVVDDILKEKNTMLSEKPEHRMDTISKLEEGAETPVTGRVMKISSPRTFTTRKGREGKLANVIIADDTGELRAVFWTENIKLLKKFREGDVIRIKDVNIRGGFGGRKEAHLMPRSTVEVLDPEDYPEFPEYREEITPIGDLVEDDEVNVIARITGVSRVRTFERDGREGRFISLDIMDATGSTTYTLWNNDVNLVEELGLKEGDAVKILWAQPRRRDDKVTLTHTSLTRVVPGEYDVPEFREELVKIGDLHEMRNVTVMGLVTKVNDPVEFERNDGTTGSVKSIEIADDTGSARVTLWDEDTRIKINKGDIIRISGANVEFDDFNQSYRINTNFNTRITLNPESDGALLKVLEEYREQMRPMKISEILEMEDEGEEVDVVGRIFSLSDPREFEREDGTGIVRSMELADETGKIRISLWDEKAEKPMNIGDAVRIENARIRLGLYSVELSAGRTTRIVNPLPEDMEDLPSFEELEEMLYQTKKIADLEEDDRNIRIIARVVDLFEPREFQRGDGTPGLVRTAEFADDTGSIRASLWDDAAEKPLSIGDPVKIENPRVVFRDDMGGGRLETQHRKQFKD
- protein production: failed

Sequence: MGHHHHHHSHMATGQDRVVALVDMDCFFVQVEQRQNPHLRNKPCAVVQYKSWKGGGIIAVSYEARAFGVTRSMWADDAKKLCPDLLLAQVRESRGKANLTKYREASVEVMEIMSRFAVIERASIDEAYVDLTSAVQERLQKLQGQPISADLLPSTYIEGLPQGPTTAEETVQKEGMRKQGLFQWLDSLQIDNLTSPDLQLTVGAVIVEEMRAAIERETGFQCSAGISHNKVLAKLACGLNKPNRQTLVSHGSVPQLFSQMPIRKIRSLGGKLGASVIEILGIEYMGELTQFTESQLQSHFGEKNGSWLYAMCRGIEHDPVKPRQLP
- protein production: not failed

Sequence: MSHLRIPKNWTIQRSTPFFTKDNVPEALLTHHNTAVDVFGQICVMEGVVTYYGFANSEATEPEIKVVINAGQFATSPPQYWHRIELSDDAQFNINFWSDQDKSGKKMFNTKLEHHHHHH
- protein production: not failed

Sequence: MVSRQEGTLYSRKRDFTVCGEEFHNSFKKSKQEDQSQSTLFNERPKSESMRSITFDFELHLHTPLPSDWQTKMSLDLELNLSPSGSPSRTTTKKYESSSIHNETVSSSKIKVLTNTSKKSIIGTGLSRSPSWLAFEGGDDNDVDHKGQEMVTTVCMKCHMLVMLCTSTPVCPNCKFMHPHDHSSTKLFKPSNLLRLLC
- protein production: failed

Sequence: MVPKFYKLSNGFKIPSIALGTYDIPRSQTAEIVYEGVKCGYRHFDTAVLYGNEKEVGDGIIKWLNEDPGNHKREEIFYTTKLWNSQNGYKRAKAAIRQCLNEVSGLQYIDLLLIHSPLEGSKLRLETWRAMQEAVDEGLVKSIGVSNYGKKHIDELLNWPELKHKPVVNQIEISPWIMRQELADYCKSKGLVVEAFAPLCHGYKMTNPDLLKVCKEVDRNPGQVLIRWSLQHGYLPLPKTKTVKRLEGNLAAYNFELSDEQMKFLDHPDAYEPTDWECTDAP
- protein production: failed

Sequence: MLGYLLLYMIFGGILLAYGSDWFIEGSTRVAKHFNVSNFVIGATIVAFGTSLPEIVTSSGAALSGSPGLAVGNAIGSCIANIGIILGISVLMYPLIIKKRAIIKNGNIYLIATILLVILGYNGFSRFDGLILFLFMIIYVIYTIKTSESDEEEIISDITVKKASIFIVVGLLAVILGSDLFIGGAKGIAEYFNVPESIIGFSLVAFGTSLPELASSVAAAKRKLGSIVLGNVIGSNIANTCVALSFSAMIVDIPKYNVELMVNTIMALLIIFTMNREKIKKMLNFKNFRTDYFSKIDRIDGISYILIYLIFLAYLLGYIF
- protein production: failed

Sequence: MLFELVILFVILFLFLGYPISKAWDSFQSKKENSSSILKFEPQEILSICLSYFIFGLGIMWNANDVRGGIPLHKFEKNGMMSDQYASLAHDHIAIVVLLVILGAVSYWRLTKGLTKLSPIFYIFYSTLMIVNIVYTFIYITHTGFAFYTELGGLRYIPVFCIQVGMLAFSLLFIAKLRNTLDYFIQSQNEKDYTQSNRIILLLYRISFGYQKMATVWMISLFPVLLIIQFILILFGQKPDSFIRVFMETSSFNYSKIPAPSPQIVSGDGHYLCTVSVKGHKNIVKPLRAGIRHGERITVNRQLLIANAFENVIEERVPKCHKVIRNFYDKYGYPISKHINTKWSADFVYILMKPLEWFFLFVLYTVDKNPENRIHIQYSELRK
- protein production: failed

Sequence: MNNTDCLLGRRKEINETAYANVLKKELVVYMKRKLMIFFIASVVTLLICSVAVLASGEDVHILINNNGIKFSIPPYVKDEEVFLPMREIFELYGFEVNWNGTERSAEAAKDGKIVKVKVGSNIVKLYGEDYNSKDDVFIFRDRIFISTDVIEAGLNIKVKWDKNKRTIYLNEYTNESITIVGNDNSVILGSNILVNISPRYDIDTVNKIIGENDEMLVEKNYTGAIRGYKELLKHISAKENPEEYIHVLINLGNAYVELASIVNREQNALEAILFYEEALKVDSIDKYPHKKALANRGMGSAYFILSTVRDVEKNTAKALEMFNEALNIFVKDGDQYNCGYLHYLKGRTYYWMAASTNTRDNIIKSLDSLEEALTTFNTENYKDEYIIARSCHGLVLTQFFNFSGEVEHLQRAFDAFNEVLDNITIEEKPILYASTYMQLASYYMYLANKDGDVESYYKCISCMQESLKVYTLDSDSYNYAVAYANIGKAYLLMSYLSQTNVNIDRALSAYEEALKVFKISQFPFNYASVQIDLGEAYTVKAGITGSEEDYNNAQNAFNNALKIYTLKNYPYQYAKTYSEFGKMYIALAYIKDKEENNKKAIECFNEALKVYSFEKYPVLYGYNQELIALSNIELSKIRDPKKHLNKSVEVCNNALKVFRKENIPYLYGVVNIYLGNSYTFLASIENTKENCIQAEKAYMNALEIFTKDASLTYYLEAMTGLAENYVIKSQVENRKENLEKAIAKCNDIIELLDRHRSSPYYGKAQYILLLSYLGLSDFENKEVNLNKALIANREAVSVFEEGNLVFDKSIALAAGANIYLKYSEVNNTVKNLTEAKRTVESALTYFKKENYPYQYAILMNSMGTIYQKLSEKENRIDNLKKSIEAYKEANEIFSIEEYGLYFAKTKHDMGDVYMKLAGSEDRKANIQKALECFSEAIRIYTNEDYPLIHEEIIKKMENIKK
- protein production: failed

Sequence: MRVHPDRGRTNLPPFKLRSSRSTYKALKEKANGDALTNAGDRSIFVPDGICQGKAAERCQKTRQRGVRSVKNLIVKIAAAALLVLAPAIAQAAEGYSTANVNMRAGPSTRYPAVAVIPAGSSVEIRGCLSNVNWCDVEFYGGRGWVSGQYVQAVYEQRRVYVGPQYYRPLGIPMVTFSVGNYWDRYYRGRDFYRERDRWSRGPDYYYRDRDYRDRDYRREYRDRDYQVREYRDRDRDRRDDARREERRREVRRDDDNRSSDFRDLPQFRGGKADTYNHPDPRASPFVCRPGDPSCGD
- protein production: failed

Sequence: MKLGFIGFGEAASAIASGLRQAGAIDMAAYDAASAESWRPRAEELGVSCKASVAEVAGECDVIFSLVTAQAALEVAQQAGPHLCEGALYADFTSCSPAVKRAIGDVISRHRPSAQYAAVAVMSAVKPHGHRVPLVVDGDGARRFQAAFTLYGCRIEVLDGEVGGAALLKMCRSAVLKGLEALFLEALAAAEKMGLADRVLASLDASFPEHHLRDLALYLVERNLEHADRRAHELGEVAATLCSVGVEPLVAEAGYRRLTRVAQVRAALKQRPGDVRAWLRSLANAEDA
- protein production: not failed
